Source: patent US20100311820, “NUCLEIC ACID MODULATORS OF GLYCOPROTEIN VI” (Regado Biosciences, Inc, published 2010)

T1: Glycoprotein VI extracellular domain (Gln21-Lys267) (Homo sapiens, UniProt Q9HCN6 SEQ:1-247)
T1 chain: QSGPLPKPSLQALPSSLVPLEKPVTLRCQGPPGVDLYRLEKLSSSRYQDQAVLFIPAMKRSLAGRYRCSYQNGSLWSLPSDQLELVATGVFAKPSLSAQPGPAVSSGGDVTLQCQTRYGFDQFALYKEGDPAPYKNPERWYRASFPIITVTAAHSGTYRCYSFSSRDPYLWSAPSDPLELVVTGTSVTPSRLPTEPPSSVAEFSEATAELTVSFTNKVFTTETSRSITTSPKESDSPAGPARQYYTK


Biological target: T1, Glycoprotein VI extracellular domain …
Assay: filter
Details: tags: C-terminal His6; R&D Systems 3627-GP; label: 5'-32P
Procedure: Enrichment of the ligand libraries for GPVI was monitored in direct binding studies utilizing radiolabeled ligand RNA from respective rounds of SELEX and soluble GPVI. Binding studies were performed with trace P³² end-labeled RNA added to serial dilutions of GPVI in Binding Buffer F. To prepare radiolabeled RNAs for binding studies, one hundred picomoles of RNA was dephosphorylated with Bacterial Alkaline Phopshatase at 50° C. for 1 hour. The reaction was phenol:chloroform:isoamyl alcohol (25:24:1) extracted, chloroform: isoamyl:alcohol (24:1) extracted, and ethanol precipitated. Three pmoles of dephosphorylated RNA was end labeled with T4 Poylnucleotide Kinase with supplied buffer, and 20 μCi of γ-P³²-ATP and subsequently cleaned with a Biorad MicroBio Spin P-30 spin column. End-labeled RNA was diluted to a final concentration of 2000 cpm/μL and heat denatured at 65° C. for 5 minutes. RNA and GPVI dilutions were equilibrated at 37° C. prior to use. RNA (5 μL) was added to varying concentrations of GPVI (15 μL) at 37° C. and incubated together for 5 to 15 minutes. The complexed RNA/GPVI protein mixture was then loaded over a Protean BA85 nitrocellulose membrane, overlayed on a Genescreen Plus Nylon membrane, in a 96 well vacuum manifold system with washing. The membranes were exposed to a phosphorimager screen, scanned, and quantitated with a Molecular Dynamics Storm 840 Phosphorimager. The fraction bound was calculated by dividing the counts on the nitrocellulose by the total counts and adjusting for the background. Results for binding of enriched ligand libraries from round 10 E2 and round 10 EF of the SELEX as compared to the GPVI-naïve starting ligand library are shown in FIG. 3.

Binder	Kd
EF-22 (RB433) (ssRNA, 2'-F C and U; 2'-OH A and G) RNA: GGGAGGACGAUGCGGAUUCAACCCGCCUCUGGCAUAAGCCUACCCAUCGUGAUUGUCAGACGACUCGCUGAGGAUCCGAGA	15.5 nM
EF-31 (RB435) (ssRNA, 2'-F C and U; 2'-OH A and G) RNA: GGGAGGACGAUGCGGUCUAAGCUGCGUCUGGCAUAAGCCUCACCUACUCGAUACUCAGACGACUCGCUGAGGAUCCGAGA	15.5 nM
GGGAGGACGAUGCGGUCUAAGCUGCGUCUGGCAUAAGCCUCCC (ssRNA, 2'-F C and U; 2'-OH A and G) [EF-31 T3 (RB440)]	15.5 nM
EF-2 T1 (ssRNA, 2'-F C and U; 2'-OH A and G) RNA: GGGAGGACGAUGCGGUGCCAAAACACCCGUCUUGCAUAAGCCUCCUACGGCAACU	15.5 nM
GGGAGGACGGCGGAUCACACCGCCUUGCGUAAGCCUCCC (ssRNA, 2'-F C and U; 2'-OH A and G) [EF-3 T4 (RB446)]	15.5 nM
EF-3 (RB429) (ssRNA, 2'-F C and U; 2'-OH A and G) RNA: GGGAGGACGAUGCGGAUCACACCGCGUCUUGCGUAAGCCUCCUACUAACGGAUCGCAGACGACUCGCUGAGGAUCCGAGA	15.5 nM
GGAGGACGGCGCGCCUGGCAUAAGCCUCC (ssRNA, RB540 with PS C7-G8 and G8-G9) [RB561]	< 10 nM
GGGAGGACGGCGUCUAAGCGCCUGGCAUAAGCCUCCC (ssRNA, 2'-F C and U; 2'-OH A and G) [EF-31 T6 (RB443)]	15.5 nM
GGGAGGACGGCGGUCUAAGCUGCCUGGCAUAAGCCUCCC (ssRNA, 2'-F C and U; 2'-OH A and G) [EF-31 T5 (RB442)]	15.5 nM
GGGAGGACGAUGCGGUGCCAAAACACCCGUCUUGCAUAAGCCUCCU (ssRNA, 2'-F C and U; 2'-OH A and G) [EF-2 T2 (RB428)]	15.5 nM
GGAGGACGGCGCGCCUGGCAUAAGCCUCC (ssRNA, RB540 with PS G9-C10) [RB550]	< 10 nM
GGAGGACGGCGCGCCUGGCAUAAGCCUCC (ssRNA, RB537 with 2'-OMe G17) [RB538]	15.5 nM
GGGAGGACGGCGAUCACACGCCUUGCGUAAGCCUCCC (ssRNA, 2'-F C and U; 2'-OH A and G) [EF-3 T5 (RB447)]	15.5 nM
GGGAGGACGAUGCGGUCUAAGCUGCGUCUGGCAUAAGCCUCACC (ssRNA, 2'-F C and U; 2'-OH A and G) [EF-31 T2 (RB439)]	15.5 nM
GGGAGGACGGCGCUAACGCCUGGCAUAAGCCUCCC (ssRNA, 2'-F C and U; 2'-OH A and G) [EF-31 T7 (RB444)]	15.5 nM
GGGAGGACGGCGCUAACGCCUGGCAUAAGCCUCCC (ssRNA, RB448 with 2'-OMe C11,G12,C17,G18) [RB455]	15.5 nM
GGGAGGACGGCGCUAACGCCUGGCAUAAGCCUCCC (ssRNA, RB448 with 2'-OMe at most of Stem 1 (G1,G2,G3,A4 and 3' partners)) [RB452]	15.5 nM
GGGAGGACGGCGCUAACGCCUGGCAUAAGCCUCCC (ssRNA, RB448 with 2'-OMe G22) [RB460]	15.5 nM
E2-6 (RB431) (ssRNA, 2'-F C and U; 2'-OH A and G) RNA: GGGAGGACGAUGCGGAUAGACCGCGUCUGGCAUAAGCCUCCAAACACUCUGAUCCCAGACGACUCGCUGAGGAUCCGAGA	15.5 nM
GGAGGACGGCGCGCCUGGCAUAAGCCUCC (ssRNA, RB551 with PS C7-G8) [RB554]	< 10 nM
GGAGGACGGCGCGCCUGGCAUAAGCCUCC (ssRNA, RB551 with PS G9-C10) [RB556]	< 10 nM
GGAGGACGGCGCGCCUGGCAUAAGCCUCC (ssRNA, RB540 with PS G5-A6) [RB546]	15.5 nM
GGGAGGACGAUGCGGUCUAAGCUGCGUCUGGCAUAAGCCUCACCUACU (ssRNA, 2'-F C and U; 2'-OH A and G) [EF-31 T1 (RB436)]	15.5 nM
GGGAGGACGAUGCGGAUCACACCGCGUCUUGCGUAAGCCUCCU (ssRNA, 2'-F C and U; 2'-OH A and G) [EF-3 T2 (RB430)]	15.5 nM
GGAGGACGGCGCGCCUGGCAUAAGCCUCC (ssRNA, RB551 with PS G8-G9) [RB555]	< 10 nM
GGGAGGACGAUGCGGAUUCAACCCGCCUCUGGCAUAAGCCUACCC (ssRNA, 2'-F C and U; 2'-OH A and G) [EF-22 T1 (RB434)]	15.5 nM

Binder	Kd
GGGAGGACGAUGCGGAUAGACCGCGUCUGGCAUAAGCCUCC (ssRNA, 2'-F C and U; 2'-OH A and G) [E2-6 T1 (RB432)]	15.5 nM
GGAGGACGGCGCGCCUGGCAUAAGCCUCC (ssRNA, RB540 with PS A6-C7) [RB547]	15.5 nM
GGGAGGACGGCGCGCCUGGCAUAAGCCUCCC (ssRNA, RB490 pattern but 2'-OH G19 and 2'-F C26) [RB488]	< 10 nM
GGGAGGACGACGCGUCUGGCAUAAGCCUCCC (ssRNA, RB526 pattern with 2'-OH A10 and 2'-F U15) [RB535]	15.5 nM
GGGAGGACGGCGCGCCUGGCAUAAGCCUCCC (ssRNA, RB490 with 2'-OMe U22) [RB504]	15.5 nM
GGGAGGACGGCGCGCCUGGCAUAAGCCUCCC (ssRNA, RB490 with 2'-deoxy A7) [RB495]	< 10 nM
GGGAGGACGGCGCGCCUGGCAUAAGCCUCCC (ssRNA, RB524 with 2'-deoxy A7,G9) [RB526]	15.5 nM
GGGAGGACGGCGCGCCUGGCAUAAGCCUCCC (ssRNA, RB490 with 2'-OMe G6) [RB491]	< 10 nM
GGGAGGACGGCGCGCCUGGCAUAAGCCUCCC (ssRNA, RB520 with 2'-F C15) [RB524]	15.5 nM
GGGAGGACGGCGCGCCUGGCAUAAGCCUCCC (ssRNA, RB490 with 2'-deoxy C8) [RB496]	15.5 nM
GGGAGGACGGCGCGCCUGGCAUAAGCCUCCC (ssRNA, RB490 with 2'-OMe G6,A7) [RB518]	15.5 nM
GGGAGGACGGCGCGCCUGGCAUAAGCCUCCC (ssRNA, RB490 with 2'-OMe G9) [RB497]	< 10 nM
GGGAGGACGGCGCGCCUGGCAUAAGCCUCCC (ssRNA, RB490 with 2'-OMe G6, 2'-deoxy A7) [RB519]	< 10 nM
GGGAGGACGGCGCGCCUGGCAUAAGCCUCCC (ssRNA, RB490 with 2'-OMe A24) [RB506]	< 10 nM
GGGAGGACGGCGCGCCUUGCAUAAGCCUCCC (ssRNA, RB526 pattern with 2'-F U18) [RB533]	15.5 nM
GGGAGGACGGCGCGCCUGGCAUAAGCCUCCC (ssRNA, RB490 with 2'-OMe A23) [RB505]	< 10 nM
GGGAGGACGGCGCGCCUGGCAUAAGCCUCCC (ssRNA, RB490 with 2'-OMe C15) [RB500]	< 10 nM
GGGAGGACGGCGCGCCUGGCAUAAGCCUCCC (ssRNA, RB526 with 2'-OMe G18) [RB531]	15.5 nM
GGGAGGACGGCGCGCCUGGCAUAAGCCUCCC (ssRNA, RB490 with 2'-OMe C8) [RB493]	15.5 nM
GGGAGGACGGCGCGCCUGGCAUAAGCCUCCC (ssRNA, RB490 with 2'-OMe A7) [RB492]	15.5 nM
GGGAGGACGGCGCGCCUUGCGUAAGCCUCCC (ssRNA, RB526 pattern with 2'-F U18 and 2'-OMe G21) [RB534]	15.5 nM
GGGAGGACGGCGCGCCUGGCGUAAGCCUCCC (ssRNA, RB531 pattern with 2'-OMe G21) [RB532]	15.5 nM
GGGAGGACGGCGCGCCUGGCAUAAGCCUCCC (ssRNA, RB490 with 2'-OMe A21) [RB503]	< 10 nM
GGGAGGACGGCGCGCCUGGCAUAAGCCUCCC (ssRNA, RB490 with 2'-OMe G25) [RB502]	< 10 nM
GGGAGGACGGCGCGCCUGGCAUAAGCCUCCC (ssRNA, RB490 with 2'-OMe G10) [RB499]	15.5 nM
